Data: publication PMC4209447

How the values were obtained:
[1] = molecular target: protein A/G (recombinant fusion protein with protein A and protein G binding sites)
[2] = molecular target: protein A/G (recombinant fusion protein with protein A and protein G binding sites); remark: listed apart in the source

peak wavelength shift after 80 minutes of injection [1]: 6 nm | exponential constant of the fit to the association phase (peak wavelength shift) [2]: 0.000533
Substance: Human IgG protein (antibody)
